Measurements from article PMC7948419, “Endophilin recruitment drives membrane curvature generation through coincidence detection of GPCR loop interactions and negative lipid charge” (The Journal of Biological Chemistry, 2020).

Key:
[1] = target: beta1-adrenergic receptor TIL (UniProt P08588); conditions: cited from earlier work
[2] = target: T1, full-length rat endophilin A1 (C108S, E241C, C294S, C295S), labeled with Alexa 594-maleimide (rat, UniProt O35179 1-352, C108S | E241C | C294S | C295S, Alexa 594-maleimide on the cysteine (E241C)); assay: confocal fluorescence imaging of recruitment to peptide-conjugated GUVs; TIL-Alexa 488 covalently conjugated (cysteine-maleimide) to GUVs of MCC-PE/DOPC/DiD 5:94.5:0.5; Alexa 594-labeled protein added in solution; HEPES buffer (20 mM HEPES, 150 mM NaCl, 1 mM TCEP, pH 7.4); room temperature; conditions: both partners purified
T1 construct: endophilin A1, rat, full length; The introduction calls endophilin a dimeric protein; also called endophilin-Alexa 594; single cysteine mutant of rat endophilin A1
T1 sequence (O35179 whole entry C108S/E241C/C294S/C295S): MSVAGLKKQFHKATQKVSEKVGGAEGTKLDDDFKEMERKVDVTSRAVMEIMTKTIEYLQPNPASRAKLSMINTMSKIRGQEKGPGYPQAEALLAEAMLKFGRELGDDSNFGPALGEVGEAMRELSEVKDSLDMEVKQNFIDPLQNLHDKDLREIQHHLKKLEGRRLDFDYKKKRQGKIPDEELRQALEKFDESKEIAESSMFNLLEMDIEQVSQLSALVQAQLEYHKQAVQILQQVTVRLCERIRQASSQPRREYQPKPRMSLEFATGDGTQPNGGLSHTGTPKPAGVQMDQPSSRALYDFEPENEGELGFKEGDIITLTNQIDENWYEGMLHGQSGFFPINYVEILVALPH

endophilin A1, sequence (Q99962 whole entry): as the sequence (O35179 whole entry C108S/E241C/C294S/C295S) above, with S108C, M133I, C241E, A266P, G270S, A286S, S294C, S295C, Q335H counted along it

Row | Molecule | Kd [1] | binding result [2]
1 | endophilin A1 (from UniProt Q99962) | 47 nM | 
2 | third intracellular loop (TIL) of the β1-adrenergic receptor (amino acids 246–325), labeled with Alexa 488 (domain or fragment, UniProt P08588 246-325, looked up, Alexa 488 on the N-terminal amine (30 to 50% labeling); Cys261 coupled to the maleimide lipid MCC-PE in the experiments with TIL-conjugated vesicles, β1-adrenergic receptor, third intracellular loop, amino acids 246–325, cloned from the pcDNA3-Flag beta-1-adrenergic-receptor vector; 80 residues, 8861 Da; Cloned into BamHI/EcoRI of pGEX6p1 and cut with PreScission protease, so a few vector residues may remain at the N-terminus (surmise); also called TIL peptide; TIL-Alexa 488; source: E. coli BL21-CodonPlus (DE3)-RIL, purified (GST trap, …)) RVFREAQKQVKKIDSCERRFLGGPARPPSPSPSPVPAPAPPPGPPRPAAAAATAPLANGRAGKRRPSRLVALREQKALKT |  | binds
